How the values were obtained:
[1] = molecular target: mouse melanocortin-3 receptor (mouse) (UniProt P33033); assay: 125I-NDP-MSH competitive displacement, HEK293 cells stably expressing mMC3R
[2] = molecular target: mouse melanocortin-3 receptor (mouse) (UniProt P33033); assay: 125I-NDP-MSH competitive displacement, HEK293 cells stably expressing mMC3R; negative = more potent than control
[3] = molecular target: mouse melanocortin-4 receptor (mouse) (UniProt P56450); assay: 125I-NDP-MSH competitive displacement, HEK293 cells stably expressing mMC4R
[4] = molecular target: mouse melanocortin-4 receptor (mouse) (UniProt P56450); assay: 125I-NDP-MSH competitive displacement, HEK293 cells stably expressing mMC4R; negative = more potent than control
[5] = molecular target: mouse melanocortin-3 receptor (mouse) (UniProt P33033); assay: cell-based or functional assay
[6] = molecular target: mouse melanocortin-4 receptor (mouse) (UniProt P56450); assay: cell-based or functional assay
[7] = molecular target: mouse melanocortin-4 receptor (mouse) (UniProt P56450); assay: 125I-NDP-MSH competitive displacement, HEK293 cells stably expressing mMC4R; here negative = weaker binder than SKY4-48-1

mouse melanocortin-3 receptor (mouse), sequence (P33033 whole entry): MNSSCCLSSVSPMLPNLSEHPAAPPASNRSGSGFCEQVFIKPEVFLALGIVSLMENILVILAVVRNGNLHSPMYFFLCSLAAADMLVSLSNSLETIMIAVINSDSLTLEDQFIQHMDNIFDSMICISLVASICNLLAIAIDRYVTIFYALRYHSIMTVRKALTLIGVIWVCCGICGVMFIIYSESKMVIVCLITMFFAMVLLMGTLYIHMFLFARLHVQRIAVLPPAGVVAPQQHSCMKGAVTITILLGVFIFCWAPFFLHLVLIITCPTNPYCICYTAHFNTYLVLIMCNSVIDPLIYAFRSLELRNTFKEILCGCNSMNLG
mouse melanocortin-4 receptor (mouse), sequence (P56450 whole entry): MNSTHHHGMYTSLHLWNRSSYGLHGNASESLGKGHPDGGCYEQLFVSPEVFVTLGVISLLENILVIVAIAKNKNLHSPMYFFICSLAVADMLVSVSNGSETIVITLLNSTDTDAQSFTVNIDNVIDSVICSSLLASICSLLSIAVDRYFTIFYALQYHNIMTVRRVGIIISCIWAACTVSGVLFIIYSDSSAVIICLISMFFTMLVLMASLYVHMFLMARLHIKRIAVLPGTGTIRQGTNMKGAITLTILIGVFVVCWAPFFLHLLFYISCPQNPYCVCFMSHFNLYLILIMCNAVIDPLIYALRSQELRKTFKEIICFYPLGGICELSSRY

Row | Substance | IC50 [1] [nM] | Fold Diff. (IC50 against SKY4-48-1) [2] [fold] | IC50 [3] [nM] | Fold Diff. (IC50 against SKY4-48-1) [4] [fold] | Fold Diff. (IC50 against SKY4-48-1) [1] [fold] | Agonist Activity EC50 [5] [nM] | Antagonist Activity K [5] [nM] | pA2 (antagonist) [5] [pA2] | Agonist Activity, % stimulation relative to maximum [6] [% @ 100 µM] | Agonist, % of NDP-MSH maximal response [6] [% @ 100 µM] | Antagonist Ki [6] [nM] | pA2 (antagonist) [6] [pA2] | Fold Diff. (IC50 against SKY4-48-1) [7] [fold] | Agonist Activity EC50 [6] [nM] | Antagonist Activity K [6] [nM] | fold increase in agonist potency against SKY5-146-7 [5] [fold]
1 | SKY4-48-23, Ac-Phe-Arg-(pI)DPhe-Tic-NH2 (peptide) | 2500 | -20 | 135 | 1 | – | – | – | – | – | – | – | – | – | – | – | –
2 | SKY5-122-1, Ac-DTic-(pI)Phe-DArg-DHis-NH2 (peptide) | 800 | – | 6700 | – | 64 | > 100000 | 63 | 7.2 | 42 | 42 | > 3100 | 5.5 | -55 | – | – | –
3 | SKY4-48-18, Ac-Arg-Arg-(pI)DPhe-Tic-NH2 (peptide) | 550 | -92 | 13 | -9 | – | 16 | – | – | – | – | 15 | – | – | > 100000 | 16 | –
4 | SKY6-24-2, Ac-His-Arg-(pI)DPhe-Tic-NH2 (peptide) | 975 | -52 | 83 | 1 | – | 40 | – | – | – | – | – | 7 | – | > 100000 | 100 | 12

Stronger by IC50 [1], values ahead:

Row | IC50 [1] [nM] | Fold Diff. (IC50 against SKY4-48-1) [2] [fold] | IC50 [3] [nM] | Fold Diff. (IC50 against SKY4-48-1) [4] [fold] | Fold Diff. (IC50 against SKY4-48-1) [1] [fold] | Agonist Activity EC50 [5] [nM] | Antagonist Activity K [5] [nM] | pA2 (antagonist) [5] [pA2] | Agonist Activity, % stimulation relative to maximum [6] [% @ 100 µM] | Agonist, % of NDP-MSH maximal response [6] [% @ 100 µM] | Antagonist Ki [6] [nM] | pA2 (antagonist) [6] [pA2] | Fold Diff. (IC50 against SKY4-48-1) [7] [fold] | Agonist Activity EC50 [6] [nM] | Antagonist Activity K [6] [nM] | fold increase in agonist potency against SKY5-146-7 [5] [fold] | Substance
5 | 420 | -120 | 43 | -3 | – | – | – | – | – | 32 | – | – | – | – | – | – | SKY6-24-3, Ac-DNal(2')-Arg-(pI)DPhe-Tic-NH2 (peptide)
6 | 440 | -115 | 220 | 2 | – | 57 | – | – | – | – | – | – | – | > 100000 | 400 | – | SKY4-48-42, Ac-Arg-Arg-(pI)DPhe-DNal(2')-NH2 (peptide)
